Assay results published in patent US20240025993A1, “CD19 BINDING MOLECULES AND USES THEREOF” (NOVARTIS AG, priority 2020, published 2024).

Biological target: human Fc gamma receptor 1A (human) (UniProt P12314)
Assay: SPR (Biacore T200), antibody amine-coupled on CM5 chip, receptor as analyte

Sequence of human Fc gamma receptor 1A (human) (P12314 16-288 limits assumed): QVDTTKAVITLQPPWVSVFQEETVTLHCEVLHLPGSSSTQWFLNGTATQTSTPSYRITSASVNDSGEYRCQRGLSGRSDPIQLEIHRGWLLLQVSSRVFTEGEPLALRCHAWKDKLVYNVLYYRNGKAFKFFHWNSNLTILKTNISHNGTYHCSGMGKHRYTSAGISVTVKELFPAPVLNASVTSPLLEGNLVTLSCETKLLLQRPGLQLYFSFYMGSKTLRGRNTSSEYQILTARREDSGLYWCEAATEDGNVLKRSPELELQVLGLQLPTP

Maximum response at 100 nM hFcgammaRIA (RU)	Substance
11 RU	Anti-CD3 human IgG1 antibody, DANAPA Fc variant (D265A/N297A/P329A)
10 RU	Anti-CD3 human IgG1 antibody, GADAPASK Fc variant (G237A/D265A/P329A/S267K)
15 RU	Anti-CD3 human IgG1 antibody, LALAGA Fc variant (L234A/L235A/G237A)
18 RU	Anti-CD3 human IgG1 antibody, LALAPG Fc variant (L234A/L235A/P329G)

The next lines start with the substance.

Substance	Maximum response at 100 nM hFcgammaRIA (RU)
Anti-CD3 human IgG1 antibody, DAPASK Fc variant (D265A/P329A/S267K)	13 RU
Anti-CD3 human IgG1 antibody, GADAPA Fc variant (G237A/D265A/P329A)	16 RU
Anti-CD3 human IgG1 antibody, LALASKPA Fc variant (L234A/L235A/S267K/P329A)	9 RU
